Experimental data: article PMC8002387

Target: QtEnc^FLAG (encapsulin shell protein from Quasibacillus thermotolerans with a C-terminal FLAG tag) (Quasibacillus thermotolerans)

## DD-mScarlet-I-QtSig (destabilized fluorescent cargo protein)
  mScarlet-I fluorescence (RFP channel) of HepG2 cells coexpressing QtEnc^FLAG and the degron-tagged cargo; share of fluorescent cells; cells with the cargo alone gave a weak background signal: 20 % of cells
